# Results: paper PMC6522505
# Target: secCl (CG7589), Cys-loop ligand-gated ion channel subunit (Drosophila melanogaster)
substance,measurement,value
"CG6927, Cys-loop ligand-gated ion channel subunit (natural protein)","shift in reversal potential in low chloride buffer, Xenopus oocytes co-expressing secCl and CG6927",53 mV
